From publication PMC8169943 come the findings set out here.

The stoichiometry N is the number of molecules, sites or subunits per partner or assembly. What is called Km is the concentration of substrate that gives half-maximal velocity.

The target in data set [1] is AdeS full cytoplasmic domain (HAMP-DHp-CA) (Acinetobacter baumannii). Put plainly: SEC.
Data set [2] shares this target. In words: SAXS.
Data set [3] addresses AdeS histidine kinase transmitter domain (DHp-CA) (Acinetobacter baumannii). In words: SEC. (In general: SEC sorts molecules by how far they enter the pores of the column.)
Data set [4] has the same target. In words: SAXS.
Substrate in the data set “purified protein”: Nc1ncnc2c1ncn2[C@@H]1O[C@H](COP(=O)(O)OP(=O)(O)OP(=O)(O)O)[C@@H](O)[C@H]1O
In words: purified protein. As to conditions: autophosphorylation; hexameric cytoplasmic domain.

As to “AdeS full cytoplasmic domain (HAMP-DHp-CA) (domain or fragment)”, the stoichiometry N in data set [1] and in data set [2] was 6 each time. Take “AdeS histidine kinase transmitter domain (DHp-CA) (domain or fragment)”: the stoichiometry N in data set [3] and in data set [4] was 2 each time.

B1: AdeS cytoplasmic domain (HAMP-DHp-CA) (Acinetobacter baumannii) (protein)
chain: KRFIVPINFLAEAAKKISHGDLSARAYDNRIHFAEMSELLYNFNDMAQKLEVSVKNAQVWNAAIAHELRTPITILQGRLQGIIDGVFKPDEVLFKSLLNQVEVLSHLVEDLRTLSLVENQQLRLNYELFDFKAVVEKVLKAFEDRLDQAKLVPELDLTSTPVYCDRRRIEQVLIALIDNAIRYSHAGKLKISSEVVSQNWILKIEDEGPGIATEFQDDLFKPFFRLEESRNKEFGGTGLGLAVVHAIIVALKGTIQYSNQGSKSIFTIKISMNN
In the case of B1, in “purified protein”, the Km amounted to 5.25 ± 0.20 µM.
